Source: patent publication US7074904
Read-outs that look alike come from different tables or passages of the source. Values belong to the molecule of their own block, whether it stands above or below them.

Experiments:
[1] = target: soluble single-chain I-A^d-OVA from insect cells (SSC1 gene in pMBSC1.2, SF9 cells) (mouse (I-A^d); chicken (OVA peptide)); assay: sandwich ELISA, M5/114 capture and biotinylated AMS-32.1 detection; supernatant of virus clone C6
[2] = target: soluble single-chain I-A^d-OVA from insect cells (SSC1 gene in pMBSC1.2, SF9 cells) (mouse (I-A^d); chicken (OVA peptide)); assay: sandwich ELISA, M5/114 capture and biotinylated AMS-32.1 detection; supernatant of virus clone F8
[3] = target: soluble single-chain I-A^d-OVA from insect cells (SSC1 gene in pMBSC1.2, SF9 cells) (mouse (I-A^d); chicken (OVA peptide)); assay: sandwich ELISA, M5/114 capture and biotinylated AMS-32.1 detection; cotransfection mix supernatant, undiluted
[4] = target: soluble single-chain I-A^d-OVA from insect cells (SSC1 gene in pMBSC1.2, SF9 cells) (mouse (I-A^d); chicken (OVA peptide)); assay: sandwich ELISA, M5/114 capture and biotinylated AMS-32.1 detection; cotransfection mix supernatant, diluted 1:2
[5] = target: soluble single-chain I-A^d-OVA from insect cells (SSC1 gene in pMBSC1.2, SF9 cells) (mouse (I-A^d); chicken (OVA peptide)); assay: sandwich ELISA, M5/114 capture and biotinylated AMS-32.1 detection; cotransfection mix supernatant, diluted 1:4
[6] = target: soluble single-chain I-A^d-OVA from insect cells (SSC1 gene in pMBSC1.2, SF9 cells) (mouse (I-A^d); chicken (OVA peptide)); assay: sandwich ELISA, M5/114 capture and biotinylated AMS-32.1 detection; cotransfection mix supernatant, diluted 1:8
[7] = target: soluble single-chain I-A^d-OVA from insect cells (SSC1 gene in pMBSC1.2, SF9 cells) (mouse (I-A^d); chicken (OVA peptide)); assay: sandwich ELISA of Example 18, M5/114 capture and biotinylated AMS-32.1 detection; sc I-A^d-OVA from insect cell culture (positive control)
[8] = target: soluble single-chain I-A^d-OVA with EE antibody tag (SCE1 construct) secreted by transfected NSO cells (mouse (I-A^d); chicken (OVA peptide)); assay: sandwich ELISA of Example 18, M5/114 capture and biotinylated AMS-32.1 detection; undiluted culture supernatant of E10 (SCE1 transfectant)
[9] = target: soluble single-chain I-A^d-OVA with EE antibody tag (SCE1 construct) secreted by transfected NSO cells (mouse (I-A^d); chicken (OVA peptide)); assay: sandwich ELISA of Example 18, M5/114 capture and biotinylated AMS-32.1 detection; undiluted culture supernatant of E11 (SCE1 transfectant)
[10] = target: Neuron Specific Enolase (NSE), supernatant of SF9 cells infected with recombinant Baculovirus; assay: sandwich ELISA, M5/114 capture and biotinylated AMS-32.1 detection; supernatant of SF9 cells infected with NSE Baculovirus (negative control)
[11] = target: I-A^d on NSO parental cells (untransfected negative control, H-2^d background) (mouse) (UniProt P04228); assay: flow cytometry, FITC-conjugated 10-3.6 isotype control 1:100 on NSO (parental) cells
[12] = target: membrane-bound single-chain I-A^d-OVA (SCT1 construct) on transfected NSO cells (mouse (I-A^d); chicken (OVA peptide)); assay: flow cytometry, FITC-conjugated 10-3.6 isotype control 1:100 on T2 (SCT1-transfectant)
[13] = target: membrane-bound single-chain I-A^d-OVA (SCT1 construct) on transfected NSO cells (mouse (I-A^d); chicken (OVA peptide)); assay: flow cytometry, FITC-conjugated 10-3.6 isotype control 1:100 on T6 (SCT1-transfectant)
[14] = target: membrane-bound single-chain I-A^d-OVA (SCT1 construct) on transfected NSO cells (mouse (I-A^d); chicken (OVA peptide)); assay: flow cytometry, FITC-conjugated 10-3.6 isotype control 1:100 on T12 (SCT1-transfectant)
[15] = target: I-A^d on NSO parental cells (untransfected negative control, H-2^d background) (mouse) (UniProt P04228); assay: flow cytometry, FITC-conjugated AMS 32.1 1:100 on NSO (parental) cells
[16] = target: membrane-bound single-chain I-A^d-OVA (SCT1 construct) on transfected NSO cells (mouse (I-A^d); chicken (OVA peptide)); assay: flow cytometry, FITC-conjugated AMS 32.1 1:100 on T2 (SCT1-transfectant)
[17] = target: membrane-bound single-chain I-A^d-OVA (SCT1 construct) on transfected NSO cells (mouse (I-A^d); chicken (OVA peptide)); assay: flow cytometry, FITC-conjugated AMS 32.1 1:100 on T6 (SCT1-transfectant)
[18] = target: membrane-bound single-chain I-A^d-OVA (SCT1 construct) on transfected NSO cells (mouse (I-A^d); chicken (OVA peptide)); assay: flow cytometry, FITC-conjugated AMS 32.1 1:100 on T12 (SCT1-transfectant)
[19] = target: T cell receptor of the murine T cell hybridoma DO11.10 (I-A^d restricted, OVA peptide 323-339 specific) (mouse); assay: cell-based or functional assay
[20] = target: T cell receptor of the murine T cell hybridoma DO11.10 (I-A^d restricted, OVA peptide 323-339 specific) (mouse); assay: cell-based or functional assay; remark: listed apart in the source

Molecule: M5/114 (ATCC TIB 120) anti-IA^d (antibody)
Absorbance (405 nm) [1]: 1.56 absorbance
Absorbance (405 nm) [2]: 1.45 absorbance
Absorbance (405 nm) [3]: 0.857 absorbance
Absorbance (405 nm) [4]: 0.524 absorbance
Absorbance (405 nm) [5]: 0.305 absorbance
Absorbance (405 nm) [6]: 0.165 absorbance
Absorbance (405 nm) [7]: 2.44 absorbance
Absorbance (405 nm) [8]: 0.781 absorbance
Absorbance (405 nm) [9]: 0.96 absorbance
Absorbance (405 nm) [10]: 0.098 absorbance

Molecule: AMS-32.1 anti-IA^d (Pharmingen) (antibody)
Mean Fluorescence [15]: 280
Mean Fluorescence [16]: 613
Mean Fluorescence [17]: 418
Mean Fluorescence [18]: 911

B3: I-A^d on NSO parental cells (untransfected negative control, H-2^d background) (protein, mouse)
MHC II alpha: EDDIEADHVGFYGTTVYQSPGDIGQYTHEFDGDELFYVDLDKKKTVWRLPEFGQLILFEPQGGLQNIAAEKHNLGILTKRSNFTPATNEAPQATVFPKSPVLLGQPNTLICFVDNIFPPVINITWLRNSKSVTDGVYETSFLVNRDHSFHKLSYLTFIPSDDDIYDCKVEHWGLEEPVLKHWEPEIPAPMSELTETVVCALGLSVGLVGIVVGTIFIIQGLRSGGTSRHPGPL
MHC II beta: GNSERHFVVQFKGECYYTNGTQRIRLVTRYIYNREEYVRYDSDVGEYRAVTELGRPDAEYWNSQPEILERTRAEVDTACRHNYEGPETSTSLRRLEQPNVAISLSRTEALNHHNTLVCSVTDFYPAKIKVRWFRNGQEETVGVSSTQLIRNGDWTFQVLVMLEMTPHQGEVYTCHVEHPSLKSPITVEWRAQSESARSKMLSGIGGCVLGVIFLGLGLFIRHRSQKGPRGPPPAGLLQ
IL-2 ELISA result (Absorbance), DO11.10 with NSO (parental cell line) as antigen presenting cell [19]: 0.047 Absorbance
IL-2 ELISA result (Absorbance), DO11.10 with NSO (parental cell line) as antigen presenting cell [20]: 0.078 Absorbance

B4: I-A^d on A20 cells with added OVA 323-339 peptide (peptide-MHC, mouse)
MHC II alpha: EDDIEADHVGFYGTTVYQSPGDIGQYTHEFDGDELFYVDLDKKKTVWRLPEFGQLILFEPQGGLQNIAAEKHNLGILTKRSNFTPATNEAPQATVFPKSPVLLGQPNTLICFVDNIFPPVINITWLRNSKSVTDGVYETSFLVNRDHSFHKLSYLTFIPSDDDIYDCKVEHWGLEEPVLKHWEPEIPAPMSELTETVVCALGLSVGLVGIVVGTIFIIQGLRSGGTSRHPGPL
MHC II beta: GNSERHFVVQFKGECYYTNGTQRIRLVTRYIYNREEYVRYDSDVGEYRAVTELGRPDAEYWNSQPEILERTRAEVDTACRHNYEGPETSTSLRRLEQPNVAISLSRTEALNHHNTLVCSVTDFYPAKIKVRWFRNGQEETVGVSSTQLIRNGDWTFQVLVMLEMTPHQGEVYTCHVEHPSLKSPITVEWRAQSESARSKMLSGIGGCVLGVIFLGLGLFIRHRSQKGPRGPPPAGLLQ
peptide: SISQAVHAAHAEINEAGR
IL-2 ELISA result (Absorbance), DO11.10 with A20 + OVA 323-339 peptide (positive control) [19]: 1.33 Absorbance
IL-2 ELISA result (Absorbance), DO11.10 with A20 + OVA 323-339 peptide (positive control) [20]: 1.45 Absorbance

Next, values leading:

Mean Fluorescence [11]: 32.1
Mean Fluorescence [12]: 22
Mean Fluorescence [13]: 45.1
Mean Fluorescence [14]: 45.9
Molecule: isotype matched FITC-conjugated anti-I-A^k antibody, 10-3.6 (PharMingen)

IL-2 concentration in DO11 super, 39 ng/well immobilized scIA^d-OVA (extended dilution) [19]: 0 U/ml
IL-2 concentration in DO11 super, 78 ng/well immobilized sc IA^d-OVA [19]: 45 U/ml
IL-2 concentration in DO11 super, 78 ng/well immobilized scIA^d-OVA (extended dilution) [19]: 17 U/ml
IL-2 concentration in DO11 super, 156 ng/well immobilized sc IA^d-OVA [19]: 100 U/ml
IL-2 concentration in DO11 super, 156 ng/well immobilized scIA^d-OVA (extended dilution) [19]: 24 U/ml
IL-2 concentration in DO11 super, 312 ng/well immobilized sc IA^d-OVA [19]: 109 U/ml
IL-2 concentration in DO11 super, 312 ng/well immobilized scIA^d-OVA (extended dilution) [19]: 35 U/ml
IL-2 concentration in DO11 super, 625 ng/well immobilized sc IA^d-OVA [19]: 116 U/ml
IL-2 concentration in DO11 super, 625 ng/well immobilized scIA^d-OVA (extended dilution) [19]: 38 U/ml
IL-2 concentration in DO11 super, 1250 ng/well immobilized sc IA^d-OVA [19]: 126 U/ml
IL-2 concentration in DO11 super, 2500 ng/well immobilized sc IA^d-OVA [19]: 143 U/ml
IL-4 concentration in DO11 super, 78 ng/well immobilized sc IA^d-OVA [19]: 7 U/ml
IL-4 concentration in DO11 super, 156 ng/well immobilized sc IA^d-OVA [19]: 10 U/ml
IL-4 concentration in DO11 super, 312 ng/well immobilized sc IA^d-OVA [19]: 16 U/ml
IL-4 concentration in DO11 super, 625 ng/well immobilized sc IA^d-OVA [19]: 15 U/ml
IL-4 concentration in DO11 super, 1250 ng/well immobilized sc IA^d-OVA [19]: 20 U/ml
IL-4 concentration in DO11 super, 2500 ng/well immobilized sc IA^d-OVA [19]: 23 U/ml
IL-r [IL-4] concentration in DO11 super, 39 ng/well immobilized scIA^d-OVA (extended dilution) [19]: 0 U/ml
IL-r [IL-4] concentration in DO11 super, 78 ng/well immobilized scIA^d-OVA (extended dilution) [19]: 0.8 U/ml
IL-r [IL-4] concentration in DO11 super, 156 ng/well immobilized scIA^d-OVA (extended dilution) [19]: 0.9 U/ml
IL-r [IL-4] concentration in DO11 super, 312 ng/well immobilized scIA^d-OVA (extended dilution) [19]: 1.5 U/ml
IL-r [IL-4] concentration in DO11 super, 625 ng/well immobilized scIA^d-OVA (extended dilution) [19]: 2 U/ml
B1: soluble single-chain I-A^d-OVA from insect cells (SSC1 gene in pMBSC1.2, SF9 cells) (peptide-MHC)
chain: TMALQIPSLLLSAAVVVLMVLSSPRTLSISQAVHAAHAEINEAGRASGGGGSGGGGNSERHFVVQFKGECYYTNGTQRIRLVTRYIYNREEYVRYDSDVGEYRAVTELGRPDAEYWNSQPEILERTRAEVDTACRHNYEGPETSTSLRRLEQPNVAISLSRTEALNHHNTLVCSVTDFYPAKIKVRWFRNGQEETVGVSSTQLIRNGDWTFQVLVMLEMTPHQGEVYTCHVEHPSLKSPITVEWTSGGGGSGGGGSGGGGSGGGGSSSEDDIEADHVGFYGTTVYQSPGDIGQYTHEFDGDELFYVDLDKKKTVWRLPEFGQLILFEPQGGLQNIAAEKHNLGILTKRSNFTPATNEAPQATVFPKSPVLLGQPNTLICFVDNIFPPVINITWLRNSKSVTDGVYETSFLVNRDHSFHKLSYLTFIPSDDDIYDCKVEHWGLEEPVLKHWSRASHHHHHH

IL-2 ELISA result (Absorbance), DO11.10 with T2 (SCT1 transfectant) as antigen presenting cell [19]: 0.758 Absorbance
IL-2 ELISA result (Absorbance), DO11.10 with T6 (SCT1 transfectant) as antigen presenting cell [19]: 0.307 Absorbance
IL-2 ELISA result (Absorbance), DO11.10 with T12 (SCT1 transfectant) as antigen presenting cell [20]: 1.03 Absorbance
B2: membrane-bound single-chain I-A^d-OVA (SCT1 construct) on transfected NSO cells (peptide-MHC)
chain: TMALQIPSLLLSAAVVVLMVLSSPRTLSISQAVHAAHAEINEAGRASGGGGSGGGGNSERHFVVQFKGECYYTNGTQRIRLVTRYIYNREEYVRYDSDVGEYRAVTELGRPDAEYWNSQPEILERTRAEVDTACRHNYEGPETSTSLRRLEQPNVAISLSRTEALNHHNTLVCSVTDFYPAKIKVRWFRNGQEETVGVSSTQLIRNGDWTFQVLVMLEMTPHQGEVYTCHVEHPSLKSPITVEWTSGGGGSGGGGSGGGGSGGGGSSSEDDIEADHVGFYGTTVYQSPGDIGQYTHEFDGDELFYVDLDKKKTVWRLPEFGQLILFEPQGGLQNIAAEKHNLGILTKRSNFTPATNEAPQATVFPKSPVLLGQPNTLICFVDNIFPPVINITWLRNSKSVTDGVYETSFLVNRDHSFHKLSYLTFIPSDDDIYDCKVEHWGLEEPVLKHWEPEIPAPMSELTETVVCALGLSVGLVGIVVGTIFIIQGLRSGGTSRHPGPL
